The target in the assay is BG505-10MUT (HIV-1 (isolate BG505)). The assay can be described thus: SPR. (SPR reads the build-up and loss of mass on a sensor chip optically.)

One may read the Kd as the equilibrium constant for the complex coming apart. Read a low Kd as a tighter complex.

B1: MutHGLL121 (fully mature PGT121 IgH with predicted germline IgL) (antibody, V domains shown)
VH: QMQLQESGPGLVKPSETLSLTCSVSGASISDSYWSWIRRSPGKGLEWIGYVHKSGDTNYSPSLKSRVNLSLDTSKNQVSLSLVAATAADSGKYYCARTLHGRRIYGIVAFNEWFTYFYMDVWGNGTQVTVSS
VL: SYVLTQPPSVSVAPGQTARITCGGNNIGSKSVHWYQQKPGQAPVLVVYDDSDRPSGIPERFSGSNSGNTATLTISRVEAGDEADYYCQVWDSSSDHPWVFGGGTKLTVL
In turn, B1 had a Kd of 47 µM.
